Assay results as given in the supplement of paper PMC9170038.

Test system: MS2 coat protein
Test: apparent KD of MS2 coat protein; designed switch direction (-1 OFF switch, 1 ON switch): -1; higher = weaker reporter binding
Method in brief: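 Apparent KD, taken as the median over clusters for each design, was obtained by curve-fitting normalised cluster fluorescence. Designed RNA switches had been transcribed on Illumina chips by stalled E. coli RNA polymerase and titrated with SNAP-549-labelled MS2 coat protein, doubling from 0.7 or 1.5 nM to 3 µM.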

[1] = Eterna round: R95, input ligand: FMN 200 uM
[2] = Eterna round: R95, input ligand: microRNA oligo, concentration not stated
[3] = Eterna round: R95, input ligand: none
[4] = input ligand: microRNA oligo, concentration not stated

AGUAGUAGUAUCCGAUCUUACAUGAGGAUCACCCAUGUUUCUAGACGUGCACGCGAUGCUCGUCAGACUACCAGAUG [salish99_TOv1_r3_053] (puzzle: Sensor v3, turn-off variant 1)
apparent KD of MS2 coat protein [1]: 128 nM
apparent KD of MS2 coat protein [2]: 173 nM
apparent KD of MS2 coat protein [3]: 174 nM

AGUAGUUCAGGAUAUGAUGAAGAGAACAUGAGGAUCACCCAUGUUGCAUCGUUUUUAUCAUCAGAAGGGAAUAACU [JR_Ex5_Sub085] (Eterna round: R97, puzzle: Exclusion 5)
apparent KD of MS2 coat protein (input ligand: FMN 200 uM): 12.7 nM
apparent KD of MS2 coat protein (input ligand: none): 13.1 nM

AGUAGUUGUUUCCGUUCUUACAUGAGGAUCACCCAUGUUUCUUGUCGUGCUCGCGAUGCUCGUCAGACUACCAGAUG [salish99_TOv1_r3_059] (Eterna round: R96, puzzle: Sensor v3, turn-off variant 1)
apparent KD of MS2 coat protein (input ligand: FMN 200 uM): 63 nM
apparent KD of MS2 coat protein [4]: 40.6 nM
apparent KD of MS2 coat protein (input ligand: none): 59.1 nM

AGUAGUUGUUUCCGUUCUUACAUGAGGAUCACCCAUGUUUCUUGUCGUGCUCGCGAUGCUCGUCAGACUACCAGAUG [salish99_TOv1_r3_059] (puzzle: Sensor v3, turn-off variant 1)
apparent KD of MS2 coat protein [1]: 53.4 nM
apparent KD of MS2 coat protein [2]: 65.7 nM
apparent KD of MS2 coat protein [3]: 72.8 nM

AGUAUGUCAGGAUAUCUCGGGUAGUCCACAACAGCUACCGAAGAGAAGGGACAUGAGGAUCACCCAUGUACCAU [EX4 B.23] (Eterna round: R97, puzzle: Exclusion 4)
apparent KD of MS2 coat protein (input ligand: FMN 200 uM): 19.4 nM
apparent KD of MS2 coat protein (input ligand: none): 30.6 nM

AGUCCACAUGAGGAUCACCCAUGUCAGGAUAUCUGCUGGAAGAGGGCAGAAAGCCAGGAGAGAAGGGACCUGGG [Usarila] (puzzle: Exclusion 1)
apparent KD of MS2 coat protein [2]: 34 nM

AGUCCUGGAGUUAGGAUAUGGAGUAUCACUGCACUUCAGAAGGGACUUGAGGAUCACCCAAGUAGCCGUGAGGG [salish99_bmod_ex4_r4_004] (Eterna round: R97, puzzle: Brourd's mod of Exclusion 4)
apparent KD of MS2 coat protein (input ligand: FMN 200 uM): 74.3 nM
apparent KD of MS2 coat protein (input ligand: none): 49.2 nM

AGUCGGCGAGGAUAUACAUGAGGAUCACCCAUGUGAGAGAAUAAAGUGAGUUAGACAAGUAGAAGGCGCUGACA [JL Lego Mod 10] (Eterna round: R96, puzzle: Exclusion 3)
apparent KD of MS2 coat protein (input ligand: FMN 200 uM): 356 nM
apparent KD of MS2 coat protein [4]: 40.9 nM
apparent KD of MS2 coat protein (input ligand: none): 48.1 nM

AGUCGGCGAGGAUAUACAUGAGGAUCACCCAUGUGAGAUAGUGCACGCGUACGUGUACGUAGAAGGCGCUGACA [Mat - Exclusion 3 - Mod of JL D94] (puzzle: Exclusion 3)
apparent KD of MS2 coat protein [2]: 11.1 nM

AGUCUGCGAGGAUAUACAUGAGGAUCACCCAUGUGCGAGAUACUAGUGAGGUCGAUUGGUAGAAGGCGCGGACA [Mat - Exclusion 3 - Mod of JL D86] (puzzle: Exclusion 3)
apparent KD of MS2 coat protein [2]: 84.5 nM

AGUGCGUAUGUGAGGAUAUGCUGGUCCUUGGAUCGGCAGAAGGUACAUGAGGAUCACCCAUGUGGUGUCGUUCU [salish99_Bmod_ex4_104] (puzzle: Brourd's mod of Exclusion 4)
apparent KD of MS2 coat protein [1]: 94 nM
apparent KD of MS2 coat protein [2]: 409 nM
apparent KD of MS2 coat protein [3]: 261 nM

AGUGGGCGCGUAGGAUAUGAGGAUCACCCAUAGAAGGAUAUCGAAAGAGAAGGUCUGAGGAUUACCCAGAAGGACGGGUUUGUA [pwkr exNG2 2xF5 2xFMN.15] (Eterna round: R96, puzzle: Exclusion NG 2)
apparent KD of MS2 coat protein (input ligand: FMN 200 uM): 925 nM
apparent KD of MS2 coat protein [4]: 278 nM
apparent KD of MS2 coat protein (input ligand: none): 232 nM

AGUGGGCUAGGAUAUCGAUGAACUCACAUGAGGAUCACCCAUGUGUCUUUGGUGGGCGCACGAGAAGGAGUAAGAU [Tiorat] (puzzle: Exclusion 5)
apparent KD of MS2 coat protein [2]: 36.5 nM

AGUGUCAAGCAAGCAAGGAACAUGAGGAUCACCCAUGUCGUACAAUAAACGCCCGCUCGUCGCACGUCGUGCGUAGA [Eternabot (Original) Solution 18] (Eterna round: R97, puzzle: Sensor, turn-off variant 1)
apparent KD of MS2 coat protein (input ligand: FMN 200 uM): 34.3 nM
apparent KD of MS2 coat protein (input ligand: none): 27.2 nM

AGUGUGAUAGGAUAUACAUGAGGAUCACCCAUGUGAAUGGUAAUGUGUCCAAGAUCAGGUAGAAGGGUCGGGUU [Eternabot (L1) Solution 56] (Eterna round: R97, puzzle: Exclusion 3)
apparent KD of MS2 coat protein (input ligand: FMN 200 uM): 83.6 nM
apparent KD of MS2 coat protein (input ligand: none): 101 nM

AGUUAUUCAGGAUAUGGUGUGUUAUACAUGAGGAUCACCCAUGUGGAUCCUGGUUAGGCCUCAGAAGGGAAUGUUA [salish99_ex5_r4_126] (Eterna round: R97, puzzle: Exclusion 5)
apparent KD of MS2 coat protein (input ligand: FMN 200 uM): 412 nM
apparent KD of MS2 coat protein (input ligand: none): 435 nM

AGUUGGCGAGGAUAUACAUGAGGAUCACCCAUGUGAGAGAUACGAGUGAGGUCGAUUAGUAGAAGGCGCUGACA [Mat X3R4 m14] (Eterna round: R97, puzzle: Exclusion 3)
apparent KD of MS2 coat protein (input ligand: FMN 200 uM): 984 nM
apparent KD of MS2 coat protein (input ligand: none): 161 nM

AGUUGGCGAGGAUAUACAUGAGGAUCACCCAUGUGAGAGAUACUGGUGAGGUCGAUUAGUAGAAGGCGCUGACA [Mat X3R4 m15] (Eterna round: R97, puzzle: Exclusion 3)
apparent KD of MS2 coat protein (input ligand: FMN 200 uM): 137 nM
apparent KD of MS2 coat protein (input ligand: none): 654 nM

AGUUGGCGAGGAUAUACAUGAGGAUCACCCAUGUGAUAUUAAAGUGAGGAAAUGAAAAGUAGAAGGCGCUGACA [Mod of Mat 24 - Jieux - Exclusion 3] (Eterna round: R97, puzzle: Exclusion 3)
apparent KD of MS2 coat protein (input ligand: FMN 200 uM): 662 nM
apparent KD of MS2 coat protein (input ligand: none): 47.3 nM

AUAAAACAUGAGGAUCACCCAUGUCAGGAUAUACGAUUCCACCCUAACUGCGUGGAACGUAGAAGGGACAUAGG [Exclusion 1 (MOD6 Esqu)] (Eterna round: R97, puzzle: Exclusion 1)
apparent KD of MS2 coat protein (input ligand: FMN 200 uM): 62.7 nM
apparent KD of MS2 coat protein (input ligand: none): 76.4 nM

AUAAACCUAGGAUAUACAUGAGGAUCACCCAUGUAAGGGCAAUGCCCAUGCUCCUCAUGUAGAAGGAGGAGCAG [Xezausa] (puzzle: Exclusion 3)
apparent KD of MS2 coat protein [2]: 20.2 nM

AUAAAGUCAGGAUAUCGAAGUGAGUGGUGGAGGGUAAGGUACGAGAAGGGACAUGAGGAUCACCCAUGUAGGAA [JR_Exclusion4)Sub005] (puzzle: Exclusion 4)
apparent KD of MS2 coat protein [1]: 24 nM
apparent KD of MS2 coat protein [2]: 27.2 nM
apparent KD of MS2 coat protein [3]: 29.5 nM

AUAAAUAACGUUAGGAUAUAUUUUGUGACAUCAGGAUAGAAGGAACAUGAGGAUCACCCAUGUGAUUCUGUGAA [Maenin] (puzzle: Brourd's mod of Exclusion 4)
apparent KD of MS2 coat protein [1]: 46.6 nM
apparent KD of MS2 coat protein [2]: 37.2 nM
apparent KD of MS2 coat protein [3]: 40.3 nM

AUAAAUCAUGUAGGAUAUGCGUGGCGAAGCUAUGCAGAAGGACAUGAGGAUCACCCAUGUGCUUGCGUCUGAGUACAGAUGCUA [Mat - Exclusion NG 1 - Mod of JL - D6] (Eterna round: R96, puzzle: Exclusion NG 1)
apparent KD of MS2 coat protein (input ligand: FMN 200 uM): 264 nM
apparent KD of MS2 coat protein [4]: 77.1 nM
apparent KD of MS2 coat protein (input ligand: none): 91.8 nM

AUAAAUCAUGUAGGAUAUGCGUGGCGAAGCUAUGCAGAAGGACAUGAGGAUCACCCAUGUUCUAGCGUCUGAGUACAGAUGCAA [Mat - Exclusion NG 1 - Mod of JL - D3] (Eterna round: R96, puzzle: Exclusion NG 1)
apparent KD of MS2 coat protein (input ligand: FMN 200 uM): 72.5 nM
apparent KD of MS2 coat protein [4]: 18.5 nM
apparent KD of MS2 coat protein (input ligand: none): 22.9 nM

AUAACGUGGGCGUCCCACGGCAAGCUUUUUGCUCGUUUGACAUGAGGAUCACCCAUGUAGCUGCGGGAUCCCUAUGA [Anatsobe] (puzzle: Sensor v3, turn-off variant 2)
apparent KD of MS2 coat protein [1]: 17.6 nM
apparent KD of MS2 coat protein [2]: 22.5 nM
apparent KD of MS2 coat protein [3]: 15.2 nM

AUAAGUAUAUAGGAUAUCUAGCUGGUAACAGCUAGAGAAGGAUGUACAUGAGGAUCACCCAUGUAAAUCGAUCA [Ex6/10-A2] (Eterna round: R97, puzzle: Exclusion 6)
apparent KD of MS2 coat protein (input ligand: FMN 200 uM): 18.5 nM
apparent KD of MS2 coat protein (input ligand: none): 18.1 nM

AUAAUACAUGAGGAUCACCCAUGUGAGGAUAUACGACUCCAACCUAACAGCUUGGACCGUAGAAGGCACAAGGG [Exclusion 1 (MOD1.2 Esqu)] (Eterna round: R97, puzzle: Exclusion 1)
apparent KD of MS2 coat protein (input ligand: FMN 200 uM): 54.5 nM
apparent KD of MS2 coat protein (input ligand: none): 261 nM

AUAAUCGUAGGAUAUCAUUAGCCCUACAUGAGGAUCACCCAUGUGGGCUGGUGAGGGCGGUGAGAAGGACGAGAGA [EX5 B.1] (Eterna round: R97, puzzle: Exclusion 5)
apparent KD of MS2 coat protein (input ligand: FMN 200 uM): 25.1 nM
apparent KD of MS2 coat protein (input ligand: none): 18.4 nM

AUAAUGUAAGGAUAUCAGUCGUACAGCCUCGGCUGUACGACUGAGAAGGUACAUGAGGAUCACCCAUGUGGUCA [E4/9-A2] (Eterna round: R97, puzzle: Exclusion 4)
apparent KD of MS2 coat protein (input ligand: FMN 200 uM): 103 nM
apparent KD of MS2 coat protein (input ligand: none): 1040 nM

AUAAUGUAAGGAUAUCAGUCGUACAGCUGCGGCUGUACGACUGAGAAGGUACAUGAGGAUCACCCAUGUGAUCA [E4/8-A3] (Eterna round: R97, puzzle: Exclusion 4)
apparent KD of MS2 coat protein (input ligand: FMN 200 uM): 104 nM
apparent KD of MS2 coat protein (input ligand: none): 1380 nM
